# Measured values published in the DeepSol protein solubility set.
# Assay: soluble on expression in E. coli; label from the status in PepcDB or PDB records
row,Sequence,soluble on expression in E. coli
1,GNYPRNVGLSPLSGVDPSEVFDVTPYAVATDKYFIKNATTYHLPRKLKVSYSNCYTDTAHCSIQDLGFVATLKNDEPYFRVFLGGGLGKQPKVALELDELIKPKDALYCVEGMIKFFMDYGNYENKNRARVRYMVESLGEELFLEKFKEYYKLEKENGSLELNI,not soluble
2,GPGGALPTCPACHKITPRTEAPVSSVSNSLENALHTSAHSTEESLPKRPLGKHSKVSVEKIDLKGLSHTKNDRNVECSFEVLWSDSSITSVTKSSSEVTEFISKLCQLYPEENLEKLIPCLAGPDAFYVERNHVDLDSGLRYLASLPSHVLKNDHVRRFLSTSSPPQQLQSPSPGNPSLSKVGTVMGVSGRPVCGVAGIPSSQSGAQHHGQHPAGSAAPLPHCSHAGSAGSALAYRTQMDTSPAILMPSSLQTPQTQEQNGILDWLRKLRLHKYYPVFKQLSMEKFLSLTEEDLNKFESLTMGAKKKLKTQLELEKEKSERRCLNPSAPPLVTSSGVARVPPTSHVGPVQSGRGSHAAELRVEVEQPHHQLPREGSSSEYSSSSSSPMGVQAREESSDSAEENDRRVEIHLESSDKEKPVMLLNHFTSSSARPTAQVLPVQNEASSNPSGHHPLPPQMLSAASHITPIRMLNSVHKPERGSADMKLLSSSVHSLLSLEERNKGSGPRSSMKVDKSFGSAMMDVLPASAPHQPVQVLSGLSESSSMSPTVSFGPRTKVVHASTLDRVLKTAQQPALVVETSTAATGTPSTVLHAARPPIKLLLSSSVPADSAISGQTSCPNNVQISVPPAIINPRTALYTANTKVAFSAMSSMPVGPLQGGFCANSNTASPSSHPSTSFANMATLPSCPAPSSSPALSSVPESSFYSSSGGGGSTGNIPASNPNHHHHHHHQQPPAPPQPAPPPPGCIVCTSCGCSGSCGSSGLTVSYANYFQHPFSGPSVFTFPFLPFSPMCSSGYVSAQQYGGGSTFPVVHAPYSSSGTPDPVLSGQSTFAVPPMQNFMAGTAGVYQTQGLVGSSNGSSHKKSGNLSCYNCGATGHRAQDCKQPSMDFNRPGTFRLKYAPPAESLDSTD,soluble
3,GPGSHQIRLLPLTDGFGDASMAGGTSAKIVSPMPGKVSKFLVNSGDFVEKGQALMIVEAMKMEHPVKALQDGQVSFLVKEGEVVGSDHVLATVVQKE,soluble
4,GPGSMAGVLHETATTVSYRGALCKLAGVELQGINLSPPQRLCQLELLISREINWLAAVLEEWEEKYMLFTCVPYRGVVDAFTTLLRTIKRHLETENSSKDNEKEWDALLASSITEFQVEVMEIGKGKSY,soluble
5,GPGSMAKWNALSAEIEAARASGDHTKLLAHVHVGLQMLQEIGATNAPIQCESLLCMEASQAHYKMMQYDEALQCAERACESLLRGCKAELQDKAQIAEIEVFMGFVLCKQGGHSAAVEAQELLQKVLHWIDVDAKSAMPMQAVAAVNLRRSVLTGLGLSTTVQATTLASKGETAEAKVLYAKGLDTLIEALNQHIDENDVELVKMTLEAILTSFEGLDDVSQAVATCRKYISWCRRHDDASGVADGESMLTALCARQKIENPLEAEKAKETEEATK,soluble
6,GPGSMDDRSLKLAEDFVSARYIDAGRESLRSTARILRSILAQRCCPDEGLTDAAIELILRQLSLMDTNNFARHVGGGEREGRVVSALVRMRHFHLTHGVGRSGDLFSEQPKAAGSSLLYKITNVLMLDLIRQAGAPSTAAAVVVPMA,not soluble
7,GPGSMDIDSPYKILGIPQSASVADIRAAFRRLALTTHPDKQGSNTSGGEAQMMLYSSHPFYVIKEASDILLDPVRRAEYDEGQQRMYARSIGVVSDVHDISDFRLVEERKALCSEDRVCGDVTIQVYEMECRCGGAFEIFLVKGEEGNMDKLCGCDSCSLIVSVRRQTQQ,soluble
8,GPGSMEDPVRCECQKHAQDDGYSQGELLPLTAFRQVEKRYKLYRYDRRTSRRLQVPETDFSDVVDFRNLEANTAANLACISTRECHEDDRLVKCCTFAGVPGMEVFPNFLTDAEQQEFCRAALLEYGDSRRHPNHLSTHASEPRETTRYEPPMRWATVGFSYQWSSKSYCKEKYSHFPRRLRKCVERIARLCNVSQPYEPQTSIVNYFPVGAMMMAHQDVSEEVLQQPLISISLGCSCVFLMGTESRDDTPCAFWLRSGDVIVVSGASRTAYHGVPRIMDDCPQYLCPQNETEEEEGEFYWREQMRHLRVNINVRQVYPDRCEFLNE,not soluble
9,GPGSMEGSGSYRLKRGRDELSTPPASGNFPASDQRGTQNLLRCPWCPNGHLMRPAAKSPTNNSKEEGTHLCTNRSSCPCGAVIDQDRTMSFSCIDGSDLIRNFYNALDDHLETCQIVSQTPSQRDWAPWSIVAERSILFADPSNRKQRHSVDCSPPSLSPDPKGPVFYFLHCDNCGEKEFVC,not soluble
